Results published in the DeepSol protein solubility set.

assay: soluble on expression in E. coli; label from the status in PepcDB or PDB records

Row | Sequence | soluble on expression in E. coli
1 | MGSDKIHHHHHHMTEFAIELTGINKSFGAVKANRDVTMSVPKGSIHGIIGENGAGKSTLMSILYGYYHADSGTIRVNGKDVRIRNSQEAIRLGIGMVHQHFMLVETFTVLENIVLGAEGGRLLKGGMEQAREHLKELNKNYSLEVDPDALVGDLGVGLQQRVEILKALYRGADVLILDEPTAVLTPQEADHLFHILRSLKAQGKTVILITHKLREVMDITDNVSVMRAGTVVDNVRTCDVDKEKLADLMVGRKVSLKVDKADSQAGAAVLDVQGLTLIDERKVKLLDNLNFQVRAGEIVGIAGVSGNGQSELLEVLAGMRDPSAGAVVYKGEDLLKLPCRRKPRAAVYRQRGIGHIPEDRSREGLVKAFSTFENAILGYHDDKTLNSGPLYSRKKLVERTRDFIAQFDIRPGNPLLRVGLLSGGNQQKVVLAREIHANPDLLLIGQPTRGVDIGAIEFIHKRLIELRDEGKAILLVSVELEEILALSDRILVMAGGQITGEVAAKDADTISLGLLMGGHKH | not soluble
2 | MGSDKIHHHHHHMTEGGFDPALLVQSWPKPSKPRPIVTFGSGSIVGDAHFPAYRKAGFPIAGLYDPDQAKATTLADKWGVTAFRSVGEAAAVQDAIFDLATPPGRHAEILKDLPDGAVALIQKPMGNYLGEATEILEICRAKNLKAAVNFQLRFAPMMLALKDAIAKGWLGEIVDFDAWLALATPWELWEFLLKAPRVEIAMHSIHYLDLIRQLLGDPKGVHAKTLGHPNHKVAQTRTSAILDYGDTVRCALSINHDHKFGRRHQACEFRICGTEGAAYLKLGLNLDYPRGEPDILEIHPKGGTDWIAVPLAGEWFPDAFVGRMANVQRFASGEDDELVSSVEDAWSTMALVEAAYKSSAAPATLIAERP | not soluble
3 | MGSDKIHHHHHHMTEKVSRFPGVFPLIVIGVPGSVDKTHKKLAFAPNLNRWRDIDVEKYFKVFEVYLENDANLAALAEMMRNKHFGDRKNIVYILVREGIGGGIIIEGKLYKGSFNAAGEIGHMKMYDRGPCFCGRVGCWEANTSISHCVRQYEKKKPLPGNTMYEKFETLCRIYEEDPLAKEVLDEFTGILIDGIVNLVNILSPEIVIVGGEGVFLPESVFEVIVSETRRQVHPMDKEVSVEKGSLSNKEVVLEGTSILSSMMISERLV | not soluble
4 | MGSDKIHHHHHHMTGIPTHKAVQQSDFGIFAKEVSPFSPNRTINYVHRDDYYILGVVKSGTCHVSIDFKEYVFSAGDVVCTQPNQVHHIIDTGNADVLLLFIDGVFIDTPTKQIIAEYVLSPVPFKINDIQYTDLGQLFSMILRRMNGGNPDCKSKAVIQNLSCAIVGIITDNIQKYIGQNHKNRRHIEITLALKALFSEEKQLNRSVSYYAEALHISPVYLNEVVKNVTGESVSKYIQNELILRAKRMLVYTSLNVREISIDLGIEDYAYFTRLFTKAVGVNPTSYRKKYLE | not soluble
5 | MGSDKIHHHHHHMTIALTGGGTGGHLAIVRCLLESAIKKNIECVYIGSQNGQDKAWFENEVRFKEKFFLSSKGVVNQSKFDKISSLLHTLKLSKDCREIFKKYHIQAVFSVGGYSAAPASFAALFSHLPLFIHEQNSKSGSLNMLLKPFATKFFSAFEKEISPYPVADKFFDNARIRKELKNIIFLGGSQGAQFINELALNLAPKLQEQNIKIIHQCGKNDFEKCKKHYQSLNIQADIFDFSLNLEEKMKNADLAISRAGASTLFELCANTLPTIFIPYPYAAKNHQYFNAKFLQDQALCQIFMQNSINLDEFFKSILKLNLENISTRLQNITQKNGADMLIQKALFDNLTFIR | not soluble
6 | MGSDKIHHHHHHMTIELTPPPKKNPQKRSTSATRPPEARSRAALGLSAAAAEGRFALQVCAECQAVQYPPRDACAACIGTDLVWQDISPDGHLLAETTIQTSTKLFFRERAPWRMGSVKLTAGPVVLCHVHGDCTRGGPVKILNRLDKSGQAVLIAIPPERTEHMDDDPQLRAMSANPKHRRILITDAWNPNTPALAKALLEAGAATIFVGEAESWRPHPNRDTLAGMENVDILPLDVTDTASVQTLAGEIGGKTDILINNARFMRPGGVLARGDTGFARDEMEVNYLGLMRLAQAFGPGMCARMADGVNSAAAWVNILSAHALSNAPDYGCFSASNAAAYSLSQSLRGEFRSAGLRVMNVFVGPTDDDWYAPLPPPKVLPTGLARSVVDGLRDGLEDVWCGDIAKDMRDRWRRDAKVLEREMTFGSEGA | not soluble
7 | MGSDKIHHHHHHMTIPTSYLNHTDAEAARKARATYRDGLVAPTSGIAPGFTQANMIVLPRDWAFDFLLYAQRNPKPCPVLDVSDPGSPTTLLAPGADLRTDLPLYRIWRDGKLAEETADATSAWAERDDLVAFLIGCSFTFETPMVEAGIEIRHMTDKSNVPMYLTNRPCRPAGRLKGNMVVSMRPIPASRVADAATISGRFPAVHGAPVHVGAPEQIGISDLSKPDFGDAVRIEPGEVPVFWACGVTPQAAVMASGVPFAITHAPGHMFITDIPDTAYHA | not soluble
8 | MGSDKIHHHHHHMTIRSKFALFAGSSSYILLHKILHRGGTSLPGKIAYRIDPTFLEEFRDQIETVIVSGTNGKTLTTALCARVLKKTNRVVVTNNSGSNMIQGIVAALLSQKDKIKKSIRHGTIPIAVLEVDEANVKEVAKILQPTHFVLTNIFRDQMDRYGEIYTTYEKITDGIKTAPKAKVVANGDSPIFARKPYKNQAVYFGFTHKKSVGDLRAPNNTDGVLAPTNDQVLHYHYLTYANLGDYFTKDGSFKRPQLKYSVNKINSLTPSKSEFEIAGNKFTLPLGGLYNIYNALAAYSLGREFQISAEDIFNALNEDSRIFGRQEQLTIGSHLVTIVLIKNPVGANSVIDMMMTDPEEFSLVTLLNANYADGIDTSWIFDAEFEKLHQTALKKIIVGGQRYKDFSVRLKMAGFKNQIVEQDFAKLIDRIKELPTKNVYVAATYTSMLMFREELAKAGLAKESF | not soluble
9 | MGSDKIHHHHHHMTKKLPIGIQTFREIREESYYYVDKTSFALKLAMEGKYYFLSRPRRFGKSLFLDTLAELFAGNEALFHGLYCHDRWDWSVRYPIIRLSFAEGWLESRAQLDKRICWLLEQNQQRLGVTCKQESDIPGSFAELLQNAEAKYGQRCVVLVDEYDKPILDNITEPEIARAMREGLRNLYSVIKGQDAHIRFAFLTGVSKFSKVSIFSGLNNLNDITIDADYSAICGYTDEDVDTVFAPELPGLDRQQIQDWYNGYNWTGQPVYNPFDLLLLFDKREFRAYWFETGTPTFLVDWLMQRGYFTPSLSRQYSSLELLSAFDVDHIEPEALLFQTGYTTLQGVEEYLPGQRIYWLGYPNKEVQISLNNALLPALGIEGQKVLTHRIRLLELLRANNFAGLQQLFTSFFASIPHDWYRNNPIAQYEGYYASVFYSHFAALGLDIVVEDTTHHGRIDMAVTFNANVYLFEFKVVELVPEGHALEQLKTKGYAEKYKIRNEPIYLIGAEFSKDSRSVVAFDVELFA | not soluble
10 | MGSDKIHHHHHHMTKSLITGANGFVGSAVTRCLLEAGHEVRCLVRPGSDRRNLDKLPVEISEGDLRSASSLKRAVAGCDNLFHVAADYRLWVPNPDTMYEINVKGTRALVLAAAEAGMKRMVYTSSVATLGTAENGVPADEDTPSSLGSMCGHYKRSKFMAEEIVQQMTREHDLPMVIVNPSTPIGPRDIKPTPTGRLVVDTLRNRMPAYVNTGLNIVHADDIAEGHLLAYKHGKPGERYILGGENMTLLQILQKIDEIRGRRIRRLGLPVKLMVPAAWLMEKMSTVTKVEPRATVDSVSMAKKKMFYSSDKAVRELGYRYRPAAAALEDAMNWFQANGYCG | not soluble
11 | MGSDKIHHHHHHMTLGIAFVGSGFSAKFHLRGLVGVRNVEVKGVYSRNLNSSKEFAMLSEQLGLGKPKVYSDISKMLSDKEINAVWLTVPNDVHLEYTKLIAEEVSQGRSNIHGITIEKPLARNVKEAKEMIRLVEKAGLLHGYLENQIFMPSVVRAREAIWEIGSRNSGRPYLARAAEEHSGPHNSWFWRPTISGGGALIDMTCHSLEATRFLLTDPAKTKSSLKPKTVYAETKTLKWNKKEYAQYLKEKYNVDFLKEPAEDYALTIVTYEDDLGNSVLAETRTSWNYVGPGLRLSVEVLGPEYSVNINTLQSELSVFFSRNIKLPQSEAFVEKQNADQGLMPIILDEAVVYGYQGEDRHMVESFISRKMPFENWYDGLLIVQLMMHAYLSAENGRKISFDPQKVEDFIPKVARGLYSAF | not soluble
12 | MGSDKIHHHHHHMTLVSTLSFLKKLNKNNNKEWFDKNRSAYEEAKKEVKALVQLVIEKTAVFDPSIASLEPKDCMFRINRDVRFSKDKSPYKTNMGFMIAPGGKKSIKGCYYVHIEPGNCFIAGGIWMPMPEHLKLIRQEIDYNGDALKKIFSSKDVKKYFSDFDEESKLIRMPKDYEETHPYAEWLKLKSFTVTFPIDEAIFSDKKVVEEITKPFKGIHALNAFLNGALDS | not soluble
13 | MGSDKIHHHHHHMTMPTNQCPWRMQVHHITQETPDVWTISLICHDYYPYRAGQYALVSVRNSAETLRAYTISSTPGVSEYITLTVRRIDDGVGSQWLTRDVKRGDYLWLSDAMGEFTCDDKAEDKFLLLAAGCGVTPIMSMRRWLAKNRPQADVRVIYNVRTPQDVIFADEWRNYPVTLVAENNVTEGFIAGRLTRELLAGVPDLASRTVMTCGPAPYMDWVEQEVKALGVTRFFKEKFFTPVAEAATSGLKFTKLQPAREFYAPVGTTLLEALESNNVPVVAACRAGVCGCCKTKVVSGEYTVSSTMTLTDAEIAEGYVLACSCHPQGDLVLA | not soluble
14 | MGSDKIHHHHHHMTPIQSGILLEHRRFAIFMEAMIQGEFDAIRQGCKKFCQTLQELQQQYPDAGLGAVLAFGNDVWRDLDCNHCAAELKPFTPLGKGLAPATQRDLLIHIQSLRHDVNFTLAQAALAAFGSAIRIEEETHGFRWVEDRDLSGFIDGTENPQGDARHAVAIIPEGQPDAGGSYVFTQRWEHNLKQLQRFSVEQQEQMIGRTKQDNEELSSDERPVTSHLSRVDLKEDGKGLKILRQSLPYGTASGKNGLYFVAYCARLHNIEQQLLSMFGGRDGKRDDMLRFTRAVSGSYFFAPSLDQLLSL | not soluble
15 | MGSDKIHHHHHHMTPKRFAFVIADLYGGGAEKSLLYTAAGLHQRGHTVKVFILRDRIEQPIPDGVTVENLALINRFSKMFSTPLVEKWQAARIARTLDDFAADVVLSCSCDKITRHLRHPNLWFWIKSDISAKFSDPDQRAKAFAKVHRFYTGRNVVAVSQGVKDNLLDVIGLRPAEIRAIYNPYEREPFLRLAEEPAPVPEGEYLINVGTYEPRKRHDRLLRAYKASGVTTPLVLLGKGKGDEEARLRKMIEDMGLAERVILPGYQTNPYPFIRHAKALILTSDAEGLPRALIESLLLGTPVVSVDCPSGPREILAGELADFLVPREDEAALADAIARMDAAPITVTEAHYRPFLKETVLPQFEALARSA | not soluble
16 | MGSDKIHHHHHHMTPRISQKEVNDAVWNACDTFRGVVDASAYKDYVLTMLFLKYISDVWQDNYDTYKAEYGDAPELIEEMMKNERFVLPKDASFYALYERRFEAGNGERIDKALHAIEEANMGKLNDVFQDISFNSTKLGDDKQKNDILRHMLEDFSKPELNLRPSRIGNLDIIGNAYEFLIKHFAASSGKKAGEFYTPPEVSQLIAELVNPQEGDEICDPACGSASLLMKCAKLIKDRFGNRKYALYGQEAIGSTWSLAKMNMFLHSEDNHRIEWGDTLRNPLLLDGDDHLKHFDIVVANPPFSLDKWGHEAAEADRFGRFRRGIPPKTKGDYAFILHMIETLKPGTGRMGVVVPHGVLFRASSEGEIRKQLIKENLLDMVIGLPEKLFYGTGIPAAILVFRKNKKDNNVLFIDASREYQDGKNQNFLRDEDIQKVLDTAKARESVDKYAYLATLEEIRENDFNLNIPRYVDTFEEEEEIDLEAVLKERKELKADLAKLEVEMEGYLKELGYLTGEE | not soluble
